Test results published in publication PMC11626772.

Biological target: N-terminally truncated type IV pilin from P. aeruginosa strain P1 (ΔP1) (Pseudomonas aeruginosa strain P1)
Assay: SEC-MALS; 23 mg ml^-1 ΔP1 with trigger solution (10 mM Tris, 300 mM NaCl, 1 mM EDTA, 1 mM DTT, 1 M MPD pH 7.4) at 10:1 (v:v) protein:hydrophobe, 96 h at room temperature with nutation; then SEC-MALS as for the untreated sample; monomer to dimer

N-terminally truncated type IV pilin from P. aeruginosa strain P1 (ΔP1) (domain or fragment)
mass fraction of the dimer: 9.1%
stoichiometry N: 2
